Test results reported in US20120269826A1.

Target: CD3/TCR complex on mouse T cells (mouse) (UniProt P22646)
Assay: cell-based or functional assay

UniProt P22646, sequence (P22646 22-189, chain 1 of 4): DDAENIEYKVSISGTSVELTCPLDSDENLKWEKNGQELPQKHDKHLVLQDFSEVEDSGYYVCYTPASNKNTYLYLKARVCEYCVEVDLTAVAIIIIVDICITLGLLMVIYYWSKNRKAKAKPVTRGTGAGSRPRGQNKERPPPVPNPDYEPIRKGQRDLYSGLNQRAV
UniProt P22646, sequence (P11942 23-182, chain 2 of 4, further chain): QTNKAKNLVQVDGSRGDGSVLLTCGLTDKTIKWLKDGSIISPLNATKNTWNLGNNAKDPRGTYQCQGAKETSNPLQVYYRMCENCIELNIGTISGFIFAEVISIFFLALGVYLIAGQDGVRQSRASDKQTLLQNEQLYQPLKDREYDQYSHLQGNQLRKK
UniProt P22646, sequence (P04235 22-173, chain 3 of 4, further chain): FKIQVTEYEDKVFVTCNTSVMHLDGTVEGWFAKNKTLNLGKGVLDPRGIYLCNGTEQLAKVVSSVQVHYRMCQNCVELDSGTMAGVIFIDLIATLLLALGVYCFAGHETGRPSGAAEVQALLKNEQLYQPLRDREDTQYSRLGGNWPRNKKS
UniProt P22646, sequence (P24161 22-164, chain 4 of 4, further chain): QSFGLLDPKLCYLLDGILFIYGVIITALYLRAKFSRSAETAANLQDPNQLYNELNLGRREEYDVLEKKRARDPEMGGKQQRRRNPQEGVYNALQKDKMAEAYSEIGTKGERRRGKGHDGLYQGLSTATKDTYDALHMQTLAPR

“anti-CD3 mAb F(ab′)2 (hamster anti-mouse CD3 mAb, clone 145-2C11)” showed a CD3/TCR-complex expression 24 hr after dose 4, 5 µg dose, Study A (% of baseline) of 50, a CD3/TCR-complex expression 24 hr after dose 4, 25 µg dose, Study A (% of baseline) of 12 and a percentage of CD3/TCR-complex modulation after the fourth dose, 1 µg (4×/72 hr) dose regimen, BALB/c mice of 19.7%. It also gave a percentage of CD3/TCR-complex modulation after the fourth dose, 2 µg (4×/72 hr) dose regimen, BALB/c mice of 30.3%.
